Laboratory results: the DeepSol protein solubility set

Test: soluble on expression in E. coli; label from the status in PepcDB or PDB records

Soluble on expression in E. coli, soluble:
MSLNKIKILPLAIALALSGCGSDETTPIDTGSHVASPDWQDQIIYFLMIDRFNDGDSALNDQGQNEFDPTSDKKFSGGDLVGVSDKLSYIEDLGATSIWITPPVANQWWDAEQNYGGYHGYWARDFQKVDEHFGDMESYQALAREVHARNMFLIQDIVTNHVGNFFTYDDPYSYDPSLPCQGFRLIKNALPAGQELPYPLNMNECKTDGTGSYHWTPTITDHNDPVQEKTWQLSDLDDLNTSDPEVRAYLKESYRKWIREVGVDGFRIDTVKFVEHDFWSDFLHADDGVMTQAVDTGRDNFLTFGEVFETSTPYHTEGEEKMLTYIGESGSPKQLTSVLNFPLQATMTRVFASGQPTDYLRFRLEKMMEMFPNPYIMPNFIDNHDMPRFLSQGSVNDMKQALITMMSVPGIPVIYQGTEQAMSAARDAMFAGGYREDGNYVDSFDQNSEMYLFIQELAKLRTENKVMTRGEIKVIGSDKAGAGVFAFTRTLDNDEVLVVMNTSNSPMLMNQLDVEQAGGTVFKQQIMSNWADAPEQLVADENGHVTLELPAKSAVIYSKTSSNQSVNTPDLNIQLAQDWEGKTITGDIVIAGSANANEKLNLVVDGNLETAQTITVGADGQFSVTLSTRHFAIGEQQHRFAIYSTEKKAGIEDVNFVSNLSWSNTPDDTIDDAGDAQDGVGGPNGNYSLPTDPTFDKDNSQLAINKAEVFTVGSNVRLTFTMDKITDTWLPPNGFDHVGFTIFIDLPEEAATNLSELPKINASMPNGTWSRNAVVFGWQSSIYNTKGANATTWGEAVTPAPTVTVDKANNTISMDFASDALGRPESLDGIRFYVTTWDLDGLSATYRPLEQDKGPWNFSGGASDESKIWDDLPIITLSEGHHHHHH, MAGGDDLKLLGAWPSPFVTRVKLALALKGLSYEDVEEDLYKKSELLLKSNPVHKKIPVLIHNGAPVCESMIILQYIDEVFASTGPSLLPADPYERAIARFWVAYVDDKLVAPWRQWLRGKTEEEKSEGKKQAFAAVGVLEGALRECSKGGGFFGGDGVGLVDVALGGVLSWMKVTEALSGDKIFDAAKTPLLAAWVERFIELDAAKAALPDVGRLLEFAKAREAAAAASK, MRAVIPYKKAGAKSRLSPVLSLQEREEFVELMLNQVISSLKGAGIEQVDILSPSVYGLEEMTEARVLLDEKDLNEALNRYLKEAEEPVLIVMADLPLLSPEHIKEISSTEKDVCIVPGKGGGTNALFIKNPSKYRVKYYGSSFLTHCSIATDSGQDFEIYDSFMAGTDIDEPEDLVELLIHGKGAAKDYIESKFRLEVKKGRVGLVPL, MVEVVGVRFREAGHIYYFAPGKSEYIYNEKVLVESQQSKQLATVAIPKKTVDSDDLPEDLKPILNKATANDLEKEQKNLADAEAAKSIANEKIRAHDLKMKLVRVEYTFDRSKMIFYFTADGRIDFRELVKDLAAIFRTRIELRQIGVRDEAKILGGIGPCGRQLCCSTFLGDFMPVSIKMAKDQGLSLNPVKISGLCGRLMCCLKYENDEYEAAKKELPDYGKEVITPDGKGKVVGLNLLSRIVKVRLHGREIAADYDYEEIKEATAKVAAEKGDQNGLEHHHHHH, AHHHHHHGSPKIEPFEKYTERYEEWFERNKFAYLSELNALKSLLPTRECVEVGIGSGRFAAPLGIKMGVEPSKKMAEIARKRGIRVIEGVAENLPFEDNSLDCILMVTTICFVDDPEKAIKEAYRVLKPGGYIVIGFVDKESLIGREYEKRKDKSVFYRDARFFSAREIMELLERNGFKIDGVVQTLFKKLDEIRDVEPVEEGYGRGSFVVIRAKKVV, MDDYMVLRMIGEGSFGRALLVQHESSNQMFAMKEIRLPKSFSNTQNSRKEAVLLAKMKHPNIVAFKESFEAEGHLYIVMEYCDGGDLMQKIKQQKGKLFPEDMILNWFTQMCLGVNHIHKKRVLHRDIKSKNIFLTQNGKVKLGDFGSARLLSNPMAFACTYVGTPYYVPPEIWENLPYNNKSDIWSLGCILYELCTLKHPFQANSWKNLILKVCQGCISPLPSHYSYELQFLVKQMFKRNPSHRPSATTLLSRGIVARLVQKCLPPEIIMEYGEEVLEEIKNSKHNTPRKKTNPSRIRIALGNEASTVQEEEQDRKGSHTDLESINENLVESALRRVNREEKGNKSVHLRKASSPNLHRRQWEKNVPNTALTALENASILTSSLTAEDDRGGSVIKYSKNTTRKQWLKETPDTLLNILKNADLSLAFQTYTIYRPGSEGFLKGPLSEETEASDSVDGGHDSVILDPERLEPGLDEEDTDFEEEDDNPDWVSELKKRAGWQGLCDR, MPCSEETPAISPSKRARPAEVGGMQLRFARLSEHATAPTRGSARAAGYDLYSAYDYTIPPMEKAVVKTDIQIALPSGCYGRVAPRSGLAAKHFIDVGAGVIDEDYRGNVGVVLFNFGKEKFEVKKGDRIAQLICERIFYPEIEEVQALDDTERGSGGFGSTGKN, MSFHVRFTLEAKADIERLYRFLAEHDFDVAERTLETIDSAWSLLEQFPFSCRKIDDANPFLREFIISFGNSGYVVLFEIEDSNTVTVLAVRHQLEDDYY, MEVEKEFITDEAKELLSKDKLIQQAYNEVKTSICSPIWPATSKTFTINNTEKNCNGVVPIKELCYTLLEDTYNWYREKPLDILKLEKKKGGPIDVYKEFIENSELKRVGMEFETGNISSAHRSMNKLLLGLKHGEIDLAIILMPIKQLAYYLTDRVTNFEELEPYFELTEGQPFIFIGFNAEAYNSNVPLIPKGSDGMSKRSIKKWKDKVENK, MSLKIGIIGASGKAGNEILKEAKKRGHEVTAIVRNASKVQEQDVAILEKDVFELTAEDIKPFDAVVNAFGAAPGQEHLHVEAGRALISILKDAKHTRLLVVGGAGSLFVDEAKTTRLMDTPEFPKEYLPTASNQGENLKDLQQTDSISWTFLSPAAFFDPAGKRTGSYQKGKDNVIVNAKGDSYISYADYAIAVLDELEHPEHKNERFTVVSEAEEGGSHHHHHH

Soluble on expression in E. coli, not soluble:
MEKKVGTDRVKRGMAQMQKGGVIMDVVNAEQAKIAEEAGAVAVMALERVPSDIRAAGGVARMADPRIVEEVMNAVSIPVMAKARIGHITEARVLEAMGVDYIDESEVLTPADDEFHLLKSDFTVPFVCGCRDIGEALRRIGEGAAMLRTKGEPGTGNIVEAVRHMRQVNGQIRQIASMTDDELMVAAKNFGAPYELVKEIKTLGKLPVVNFAAGGVATPADAALMMELGADGVFVGSGIFKSDNPAKFASAIVQATTYYTDYE, MGSDKIHHHHHHLLASGLEYSHHMSPDAMVEDITRLVEIWVTGWAGCRGYETRTEGRFPAALRADTTKEWEYFAHDPSDTEFAELAAKTAEAPARILTILTNDVARYTYLAQQHGLNVTSASQTMMIVDMETRDSEDPWLSDDDLKLTTFKKDGVHHAVVNAGESVAASGRVFVVGHTAVFDKIVTEPAYQRRGLGSFIMKALAAQAFEHDVENGLLLASLDGQKLYSHLGWTTLCHVLMLSSSNEGADLSVG, RQGELSIACLPVFSQSFLPLLLPPFLSRYPEVSLQIVPQESPLLEEWLSAQRHDLGLTETLHTPAGTERTPLLTLNEVCVLPAGHPLAAQATLTPADFQGENYISLSRTDSYRQLLDALFLEHQVKRRMVVETHSAASICAMVRAGA, IEKSTQYMAKRRIGALISVARDTGMDDYIETGIPLNAKISSQLLINIFIPNTPLHDGAVIIKGNEIASAASYLPLSDSPFLSKELGTRHRAALGISEVTDSITIVVSEETGGISLTKGGELF, MSKNDTEKILLDDLLFLQRAPYYESFSVYKIDSNKYIENENDSHIDRWLSMAVSGDDKTEAPTEFVIEPGGCLISLVVDRRLISLY, MGSDKIHHHHHHLFSEAQMQKMGAESFASMNQEQKVSKDKALTTYVNCVAKRITDVLPGEAKPWELVLFESDQVNAFAVPGGFIGVYTGLLNVANTQDQLATVLGHEVAHVLAHHGNEQVSRAQMTGLGIQLADVALGAGGVSNKDLYMQALGLGAKVGYILPFGRTQESEADVMGLELMAKAGFDPSQSITLWQNMAKAGGAQGPELLSTHPSNERRIQDLQGLQGRVAPLYLAARETQLAKCIQPGKK, MGSDKIHHHHHHMRLSNGDVIVFAGDSITDREKSNNAPLGYGYVNLFYNLMLAKHPETKITVINSGISGNTVIDLIDRWDDDVLSYKPNWISILIGINDLHKFLGGLTTFNPENYYENLRRLLKYTRKVLNNVNFILMTPFYISRNKLEGGFRAKVLELLPQYIEKVRLLSNEFSATYIDLHDTFKKLVNIREPNVYAPEPVHPNFTGHMVIALKLLEALEI, MGSDKIHHHHHHMFSKIEFKNFMSFSNLTFDLLNRGKCKDIIAIYGENGSGKTNIVEAFKLLVLSLQSMESLNENTRLQSLLKEQTNKEENQKTNFGDISEILDKISFFTTFKGIAKNTHRIASEGNTILKYYFNIEKDNGYYLLEYNENNELVKEELVFKIKSNKGVHFSITNIDGLSQSLNKTIFKNTIFKDLTEQIEKYWGKHTFLSIFNNYCLEVNEEFINEQVSINFQKVVDEFDKIFIWSGNFRGPFHSTELLLKDISKGKIDKSEKEKLSYTEEIIYKYFSALYIDIKDVKYKQDAQGQEIKYELMIRKNIGGDLLDVPISLESQGTKNLLDLLKVFNNVLDGKICIVDEIDSGIHDLLMNSILNDLKGSVNGQLIFTTHDTTLLKELSPSSAYFLNVDIKGNKVIISGNEADKKIGVNNNLEKLYLSGFFGAVPDPLDIDFSDLFLDHNLSED, MGSDKIHHHHHHMARKPRIHYPGALYHVILRGNARQDIFHDPEDRYRFYLFLQEGAERFGHRILAFCLMTNHVHLAVQVGEVPLSRFMQNITFRYTRWQNWRMGKTGHLFQGRYKSFLVDGDAYLQELVAYIHLNPVRAGMTTKLGSYTWSSHRAYLGKEIIPWLNTETVLATYSSDTSTARKQYATFISDRVKEGHREEFHGKGSSDSRVIGDDHFVEAILERADRLPLRRPGLDMVVEVIKRLYRLDEEELASPGQKRWAAEARGVAAWAVQEFSSATLTDLAKRFGRDVSSMSAAVRRLEQRRKIDQGIAERLERVGRELEGAIFQA, MERVKSHFHNRKKVLLARIKDELKTIPSSNQMSTDEKMEELVRRRICIGEYDEQLARVCLDIEDEEKGRTEQFGNEQIQQPMTNLFTETSHQSLLSQLLTSSASQSKSEIPISMSSPMESASSKDSEPQAVISLPTLGATRAPLLSKLLSDPSTSKENGFLLRKEPVRLARAPSAIRNPNVSNYDRKRRAASPYEKSNRLSVLPSPQNQYLSHLIVDVSSPQELKRLLSVLIDHGFSRFQHIGSSDMVASSIRTGIPRAPRLDTVEYSNYEHEPETDEISRDGTPFWSTPIPPTNKELPVSPVSQLDMTNSIKSRVERVDVEVKLEPCNDEDDEFSEEVDEQTAELEEQLATEAIRTGLALFGKVSPSPKRMKSCGSSGSVCGDVVTAICEICGIGIRLNSGGSKWNFFEHVMMKHSTHKPFKCSQCPYQAVRKVRVKQHGQSQHNSEHEPVNMITPEVRKEWLDTMAKCFPNHQYGKEAKI, MQERHTEQDYRALLIADTPIIDVRAPIEFEQGAMPAAINLPLMDNDERASVGTCYKQQGSDAALALGHKLVAGEIRQQRMYAWRAACLQNPQGILCCARGGQRSHIVQRWLHEAGIDYPLVEGGYKALRQTAIQATIELAQKPIVLIGGCTGSGKTLLVQQQPNGVDLEGLARHRGSAFGRTLQPQLSQASFENLLAAEMLKTDARQDLRLWVLEDESRMIGSNHLPECLRERMTQAAIAVVEDPFEIRLERLNEEYFLRMHHDFTHAYGDEQGWQEYCEYLHHGLSAIKRRLGLQRYNELAAQLDTALTTQLTTGSTDGHLAWLVPLLKEYYDPMYRYQLEKKAEKVVFRGEWAEVAVWVKAQLEHHHHHH
